Data published in paper PMC11121179.

Molecular target: PKM2 (pyruvate kinase M, isoform M2) (human (endogenous in HUVECs)) (UniProt P14618)
Assay: native gel or EMSA

Chain of PKM2 (pyruvate kinase M, isoform M2), P14618 1-531 (enzyme; other documents disagree on this pair) (P14618 whole entry, canonical isoform): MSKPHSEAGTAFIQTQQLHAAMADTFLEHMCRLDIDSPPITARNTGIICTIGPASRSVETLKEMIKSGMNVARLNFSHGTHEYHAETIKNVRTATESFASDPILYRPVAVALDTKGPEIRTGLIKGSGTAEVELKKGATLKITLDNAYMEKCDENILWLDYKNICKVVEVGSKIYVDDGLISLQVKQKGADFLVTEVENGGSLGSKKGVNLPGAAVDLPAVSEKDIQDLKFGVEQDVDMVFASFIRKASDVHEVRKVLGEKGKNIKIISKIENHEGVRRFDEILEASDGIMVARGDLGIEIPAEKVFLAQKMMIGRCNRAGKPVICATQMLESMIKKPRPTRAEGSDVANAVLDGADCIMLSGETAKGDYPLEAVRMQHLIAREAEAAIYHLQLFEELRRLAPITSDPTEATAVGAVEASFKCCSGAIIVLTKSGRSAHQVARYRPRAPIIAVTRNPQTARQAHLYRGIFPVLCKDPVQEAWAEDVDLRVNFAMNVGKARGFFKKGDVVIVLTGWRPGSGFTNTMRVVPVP

PKM2 (pyruvate kinase M, isoform M2), P14618 1-531 (enzyme; other documents disagree on this pair)
stoichiometry N: 2
